Legend:
Assay type in all cases: cell-based
PC3 cells = assay: Photobleaching FP or FP fusions in mammalian cells; details: for t50%, time to bleach for 50% emission intensity / A1, Double Exportential Decay Fit / A2, Double Exportential Decay Fit / A, Single Exponential Decay Fit / k1, Double Exportential Decay Fit / k2, Double Exportential Decay Fit / k, Single Exponential Decay Fit: PC3 cells; for t50%, time to bleach for 50% emission intensity: 25 μM BV or 1 μM BVMe2 for 4 h; for A1, Double Exportential Decay Fit / A2, Double Exportential Decay Fit / A, Single Exponential Decay Fit / k1, Double Exportential Decay Fit / k2, Double Exportential Decay Fit / k, Single Exponential Decay Fit: photobleaching; for mammalian cell photostability t50%: time to bleach 50% from an initial emission rate of 1,000 photons per s
Experimental: PC3 cells were transfected with 2 μg of circular DNA+5 μl Lipofectamine 2000 (Life Technologies) in 2 ml Opti-MEM (Life Technologies) for 4-5 h, transfection media was discarded, prewarmed growth media was added, and protein was produced for 48 h. 25 μM BV or 1 μM BVMe2 was incubated for 4 h. Cells were photobleached with continuous light exposure from a 150 W xenon arc lamp with eGFP EX/EM=495(10)/535(25) nm, tdTomato EX/EM=540(25)/595(50) nm, mCherry EX/EM=580(20)/[…] nm, and smURFP EX/EM=628(40)/680(30) nm focused with a 40×, 1.2 numerical aperture C-Apochromat oil-immersion lens on aZeiss Axiovert 200M inverted microscope. Photobleaching times were normalized to reflect an initial illumination intensity producing 1,000 photons per fluorescent molecule per second as previously described^37. Data was fit to a single exponential decay (F=A [exp^−kt]), where F is fluorescence that varies as a function of time, A is the fit normalized, initial fluorescence (should be 1), k is the rate of fluorescence decay (photobleaching), and t is time in s, or a double exponential decay (F=A1[exp^−k1^t]+A2[exp^−k2^t]), where F is fluorescence that varies as a function of time, A1 and A2 are the fit normalized, initial fluorescence (sum should be 1), k1 and k2 are the rates of fluorescence decay (photobleaching), and t is time in seconds, and data is shown in Table 6.

HEK293A cells [1] = assay: FP stability in HEK293A cells (cycloheximide); details: for fold increase in smURFP fluorescence: HEK293A
Experimental: HEK293A cells were transfected with pCDNA3-smURFP-IRES-eGFP and incubated for 48 h. 50 μg/ml cycloheximide+25 μM BV, 5 μM BVMe2, or no chromophore was added and cells were imaged after 1, 10, 30, 60, 120, and 225 min. Fluorescence was fit to a single exponential decay (F=A [exp^−kt]), where F is fluorescence that varies as a function of time, A is the fit initial fluorescence, k is the rate of fluorescence decay (protein degradation), and t is time in min.

HEK293A cells [2] = assay: Fluorescence imaging of FPs in HEK293A cells with chromophore addition or HO-1 expression
Source text: smURFP codons were optimized for human cell expression, and the gene was created by GenScript. smURFP, TDsmURFP (created from mammalian-optimized smURFP), IFP1.4 (mammalian-optimized form^35), IFP2.0 (mammalian-optimized form^46), and iRFP713 (mammalian-optimized form^36) were PCR amplified using Phusion High-Fidelity DNA Polymerase (NEB) with primers containing 5′ HindIII and 3′ XhoI restriction enzyme sites. HindIII-HF and XhoI (NEB)-digested PCR fragments were gel purified (Zymoclean Gel DNA Recovery Kit) and were ligated (T4 DNA Ligase, Life Technologies) into a similarly digested pCDNA3-IRES-eGFP vector (bicistronic to express two FPs in the same cell). For creation of HO-1-expressing mammalian vec-tors, the Synechocystis HO-1 was used, and the codons were not optimized for mammalian expression. Synechocystis HO-1 was directly amplified from the pBAD vector using primers containing 5′ BsiWI and 3′ XbaI restriction enzyme sites. pCDNA3 smURFP, TDsmURFP, IFP1.4, IFP2.0, or iRFP713-IRES-eGFP vectors were digested with BsiWI and XbaI (NEB), dephosphorylated (SAP, Roche), gel purified (Zymoclean Gel DNA Recovery Kit), and ligated (T4 DNA Ligase, Life Technologies) with similarly digested, purified HO-1 PCR fragment. For creation of smURFP fusions, smURFP was PCR amplified using Phusion High-Fidelity DNA Polymerase (NEB) with primers containing 5′ AgeI and 3′ NotI restriction enzyme sites for N-terminal fusions or with primers containing 5′ AgeI and 3′ BspEI restriction enzyme sites for C-terminal fusions. mGeos2-VEL-ManII-N-10 (Addgene 57551) and Dronpa-PDHA1-N-10 (Addgene 57292) vectors were digested with AgeI and NotI (NEB) and mCherry-αTubulin-C-18 (Addgene 55148) and tdTomato-LaminB1-10 (Addgene 58107) were digested with AgeI and BspEI, dephosphorylated (SAP, Roche), gel purified (Zymoclean Gel DNA Recovery Kit), and ligated (T4 DNA Ligase, Life Technologies) with similarly digested, purified smURFP PCR fragment. HEK293A (Invitrogen, Life Technologies), HT1080 (ATCC), and PC3 (ATCC) cells were grown in Dulbecco's Modified Eagle's medium (DMEM, Corning), supplemented with 10% FBS (Atlanta Biologicals)+1×penicillin—streptomycin (Fisher Scientific), which is referred to as growth media, on poly-D-lysine-coated glass-bottom culture dishes (MatTek, No. P35G-0-14-C). The HEK cell line is listed in the ICLAC and NCBI biosample databases and is commonly misidentified as the HeLa cell line. For expression of exogenous fluorescent proteins, there is no problem if there is a contaminating cell line because no endogenous biology or therapeutic results are being determined. HEK293A cells were purchased from Invitrogen (Life Technologies), and all experiments are derived from the same expanded frozen stock without cell line authentication or mycoplasma detection. Cells were transfected using 2 μg of circular DNA+5 μl Lipofectamine 2000 (Life Technologies) in 2 ml Opti-MEM (Life Technologies) for 4-5 h, transfection media was discarded, and prewarmed growth media was added. Chromophores (5 mM in DMSO) were added at indicated concentrations to growth media, warmed for 10-15 min at 37° C., and added to cells. For multiple timepoints, incubations were staggered to maintain equivalent incubation. Prior to imaging, cells were washed 1×2 ml growth media, 2×2 ml imaging solution, and imaged in 2 ml imaging solution. Fluorescence imaging was performed on a Zeiss Axiovert 200M inverted microscope controlled by SlideBook software. FPs were imaged with the following settings: eGFP, EX/EM=495(10)/535(25) nm, tdTomato EX/EM=540(25)/595(50) nm; mCherry and mCardinal, EX/EM=580(20)/653(95) nm; smURFP and TDsmURFP, EX/EX=628(40)/680(30) nm; and IFP1.4, IFP2.0, and iRFP713, EX/EM=665(45)/725(50) nm. […]

B1: smURFP: small ultra-red fluorescent protein, SEQ ID NO: 13, homodimer, covalently attaches biliverdin (protein)
chain: MKTSEQRVNIATLLTENKKKIVDKASQDLWRRHPDLIAPGGIAFSQRDRALCLRDYGWFLHLITFCLLAGDKGPIESIGLISIREMYNSLGVPVPAMMESIRCLKEASLSLLDEEDANETAPYFDYIIKAMS
modifications: homodimer; biliverdin chromophore; smRUFP Variant Polypeptide
- t50%, time to bleach for 50% emission intensity (PC3 cells): 410 s
- A1, Double Exportential Decay Fit (PC3 cells): 0.23
- A2, Double Exportential Decay Fit (PC3 cells): 0.72
- A, Single Exponential Decay Fit (PC3 cells): 0.75
- k1, Double Exportential Decay Fit (PC3 cells): 0.00024 s⁻¹
- k2, Double Exportential Decay Fit (PC3 cells): 0.0022 s⁻¹
- k, Single Exponential Decay Fit (PC3 cells): 0.0008 s⁻¹
- mammalian cell photostability t50% (PC3 cells): 570 s
- average time to bleach 50% emission, t50% (PC3 cells; with BV, mammalian cells (n=5)): 570 s
- average time to bleach 50% emission, t50% (PC3 cells; with BVMe2, mammalian cells (n=5)): 340 s
- fold increase in smURFP fluorescence (HEK293A cells [1]; 5 μM BVMe2, 1 h): 85 fold
- fold increase in smURFP fluorescence (HEK293A cells [1]; 5 μM BVMe2, 3 h): 85 fold
- fold increase in smURFP fluorescence (HEK293A cells [1]; 5 μM BVMe2, 48 h): 125 fold
- fold increase in smURFP fluorescence (HEK293A cells [1]; 25 μM BV, 3 h): 13 fold
- fold increase in smURFP fluorescence (HEK293A cells [1]; 25 μM BV, 48 h): 27 fold
- protein stability t50% (HEK293A cells [1]; BV exposure 3 h): 30 h
- protein stability t50% (HEK293A cells [1]; BVMe2 exposure 3 h): 33 h
- protein stability t50% (HEK293A cells [1]; HEK293A cells, cycloheximide): 33 h
- protein stability t50% (HEK293A cells [1]; continuously exposed to BV, cycloheximide): 33 h
- protein stability t50% (HEK293A cells [1]; continuously exposed to BVMe2, cycloheximide): 35 h
- protein stability t50% (HEK293A cells [1]; without chromophore (apoprotein)): 17 h
- brightness in cell culture compared with other FPs (HEK293A cells [2]): comparable brightness to eGFP and is brighter than mCherry, mCardinal, IFP1.4, IFP2.0, and iRFP713
- fold increase in fluorescence with HO-1+5-ALA+FeSO4 (HEK293A cells [2]; HEK293A cells): 7.7 fold
- fold increase in fluorescence with expression of HO-1 (HEK293A cells [2]; HEK293A cells): 2.8 fold
- fold increase in fluorescence with 25 μM BV (HEK293A cells [2]; HEK293A cells, 3 h): 4.7 fold
- fold increase in fluorescence with 25 μM BVMe2 relative to 25 μM BV (HEK293A cells [2]; HEK293A cells, 3 h): 18 fold
- fold increase in fluorescence with 25 μM PCB relative to 25 μM BV (HEK293A cells [2]; HEK293A cells, 3 h): 10 fold
- fluorescence relative to eGFP expressed from IRES (HEK293A cells [2]; HEK293A cells, in the presence of BVMe2): five-fold greater fluorescence

B2: smURFP + BVMe2: smURFP with a single biliverdin dimethyl ester chromophore (protein)
chain: MKTSEQRVNIATLLTENKKKIVDKASQDLWRRHPDLIAPGGIAFSQRDRALCLRDYGWFLHLITFCLLAGDKGPIESIGLISIREMYNSLGVPVPAMMESIRCLKEASLSLLDEEDANETAPYFDYIIKAMS
modifications: left off: small tags and cut ends
notes: smURFP with a single biliverdin dimethyl ester chromophore
- t50%, time to bleach for 50% emission intensity (PC3 cells): 190 s
- A1, Double Exportential Decay Fit (PC3 cells): 0.42
- A2, Double Exportential Decay Fit (PC3 cells): 0.57
- A, Single Exponential Decay Fit (PC3 cells): 0.73
- k1, Double Exportential Decay Fit (PC3 cells): 0.020 s⁻¹
- k2, Double Exportential Decay Fit (PC3 cells): 0.0012 s⁻¹
- k, Single Exponential Decay Fit (PC3 cells): 0.0015 s⁻¹
- mammalian cell photostability t50% (PC3 cells): 340 s
- protein stability t50% (HEK293A cells [1]; HEK293A cells, cycloheximide): 35 h
- fold brighter than IFP2.0 or iRFP713 (HEK293A cells [2]; HEK293A cells): 7 fold
- fold increase in fluorescence relative to smURFP (HEK293A cells [2]; HEK293A cells, chromophore incubation 3 h): > 32 fold

From patent US10501502B2, “Allophycocyanin alpha-subunit evolved labeling proteins (smURFPs)” (The Regents of the University of California, priority 2016, dated 2019)
